The results in this text go back to patent US20230257435A1, “Wound Healing Composition and Uses Thereof” (AGENCY FOR SCIENCE, TECHNOLOGY AND RESEARCH, priority 2020, published 2023).

In one experiment the test system is mouse skin explants. Briefly: Mouse skin explant assay (keratinocyte outgrowth). The experiment is classed as cell-based. The method, then: Three days old ICR strain mouse pups were sacrificed and the hind skin on either side of the midline in the shoulder region was washed in 70% ethanol and excised using scalpel. The excised skin was washed in 70% ethanol and placed (dermis side down) on the pre-made gel substrates of defined stiffness, either in the absence or presence of 20 μg/ml sAgrin. The explants were allowed to adhere for 2 h before adding the keratinocyte culture medium (DMEM) containing 300 μM Ca^2+ as described previously^31. The keratinocyte outgrowth and the skin tissues regularly imaged under an Axiovert-200 inverted microscope and were subsequently fixed in 4% paraformaldehyde and immunostained for Keratin 17 antibody.
Tissue culture plates were coated with Col-T-gel (Fischer Scientific) of stiffness ranging from 0.8 KPa (soft) to 30 KPa (stiff) as per manufacturer recommendations and allowed to solidify for 40 min at 37° C. inside tissue culture incubators. Some experiments were performed with cells seeded on the poly-hydrogel plates of defined stiffness: 0.2 kPa and 16 kPa soft and hard polyhydrogels, respectively (CytoSoft, Advanced Biomatrix, Inc.,). The determination of stiffness of silicone substrates were done by the manufacturer as per previously published protocols. For certain experiments, indicated amounts of sAgrin was incorporated into the 0.8 KPa collagen gels before gelation process. Upon gelation, trypsinized cells or excised mouse skin explants were plated onto the gels of different stiffness either alone or containing sAgrin. The cells/tissues were incubated under standard culture condition with 500 μl recommended culture medium for the indicated days. The crossbow shaped micropatterns with fibronectin coated islands were generated by microlithography on a 19.5×19.5 mm coverslide from Cytoo, Inc., France. The micropatterns had surface areas of 800μ^2 or 1600μ^2, respectively. Fifty thousand cells after initial siRNA treatment was placed on the micropatterns for 4-6 h before processing them for immunofluorescence. […]

Experiment [1] relates to phosphorylated myosin light chain (pMLC). Briefly: Actomyosin cables / pMLC activation after wound scratch. It is filed as cell-based, human. On the procedure:
Indicated cells post-manipulation were washed twice with cold Phosphate buffered saline (PBS) and lysed with cold 1% NP-40 lysis buffer supplemented with 1× protease inhibitor cocktail (Roche Applied Biosciences) for 15 mins at 4° C. The cell lysate was centrifuged at 13,000 rpm for 15 min. This was followed by protein estimation using Bradford reagent. Subsequently, […] of total protein was mixed with an equal volume of 2× Laemmli sample buffer and heated at 95° C. for 5 mins. This was followed by resolution with SDS-PAGE gel. The resolved proteins were transferred onto nitrocellulose membrane and blocked in 5% skimmed milk reconstituted in 1×PBS containing 0.1% Tween-20, and probed overnight with the respective primary antibody. The membrane was then washed with 1×PBS supplemented with 0.1% Tween-20: three times at 15 min intervals. This was followed by 1 h incubation in conjugated horseradish peroxidase HRP secondary antibody (Santa Cruz Biotechnology). Post-incubation, the blot was again washed three times as above and then overlaid with enhanced chemiluminescence (ECL) substrate (Pierce/Bio-Rad) and visualized on X-ray film by image processor or digitally by Chemidoc analyzer (Bio-Rad). The density of the various bands was quantified using the Image-J software.
Cells were cultured on eight-well chamber slides or coverslips over-night. Cells were then washed twice with PBS and fixed for 15 min with 4% paraformaldehyde. Subsequently, the cells were permeabilized for 15 min with 0.1% Triton X in Phosphate buffered saline containing 1 mM Ca^+2 and 1 mM Mg^+2 (PBSCM) at room temperature. The permeabilized cells were incubated with indicated antibodies in fluorescent dilution buffer (FDB) for 1-2 h at RT or overnight at 4° C., followed by 5 washes with PBSCM and incubation with secondary antibody; Alexa Fluor (Thermo Fisher Scientific) for 1 h at RT. Slides were again washed five times with PBSCM and mounted with Vectashield medium containing DAPI. The stained cells were then imaged by a Zeiss confocal microscope. The images were processed and analyzed by Zen blue software. Intensity measurements were acquired using tool selection parameter in image analysis within the Zen blue software.
A confluent monolayer of control and Agrin depleted cells in a 6-well plate was subjected to a unidirectional scratch using a 20 μl pipette tip. This was followed by washing with 1×PBS at room temperature and incubation in complete culture media at 37° C. and 5% CO2 with or without sAgrin used as indicated. Phase contrast images of the wound area were taken periodically at the indicated time-points. For some wound-healing migration assays, keratinocytes were cultured on either soft or stiff substrates within a stencil barrier (Nalge Nunc., Inc) for 18 h. Upon removal of the barrier, the cells were allowed to migrate and imaged using an Axiovert 200 inverted microscope at indicated time-points.

A further experiment deals with mouse keratinocytes. In words: Cell stiffness by atomic force microscopy (AFM). It is filed as cell-based. The method, then: The stiffness of the mouse keratinocyte cells was measured using a Nanowizard IV BioAFM system (JPK Instruments, Germany). Confluent mouse kerantinocyte monolayers were cultured on a petri dish in PBS media. The monolayers were scratched across the center of the petri dish using a 100 μl pipette tip and characterised after 4 hrs. Indentations were performed on randomly selected cells at the wound edge with a polystyrene bead of diameter (˜4.5 μm) attached to the end of a cantilever (k=0.03 N/m, Novascan Technologies, Inc., Ames, Iowa) using a force of 3 nN at 1 Hz. More than 60 cells from triplicate experiments were characterized and averaged to evaluate the Young's modulus for each condition. Young's modulus values were calculated using JPK Data Processing Software (JPK Instruments, Germany), which employs Hertz's contact model for spherical indenters (diameter 4.5 μm; Poisson's ratio 0.5) fitted to the extend curves.

B1: sAgrin: C-terminus recombinant Agrin fragment containing 8 amino acid 'Z8' insert and LG3 domain (SEQ ID NO: 7), His-tagged, expressed in E. coli (protein)
chain: DTLAFDGRTFVEYLNAVTESELANEIPVEKALQSNHFELSLRTEATQGLVLWSGKATERADYVALAIVDGHLQLSYNLGSQPVVLRSTVPVNTNRWLRVVAHREQREGSLQVGNEAPVTGSSPLGATQLDTDGALWLGGLPELPVGPALPKAYGTGFVGCLRDVVVGRHPLHLLEDAVTKPELRPCPTP
modifications: His tag
As to B1, the “keratinocyte outgrowth on soft substrates” value in the experiment with mouse skin explants (soft ECM, 20 μg/ml sAgrin, day 5) is listed as “significantly enhanced keratinocyte outgrowth”. For the same molecule, the “keratinocyte outgrowth of Agrin depleted explants on stiff substrates” value in the experiment on mouse skin explants (stiff ECM with 20 μg/ml sAgrin) is given as “exhibited higher keratinocyte outgrowth”. For the same molecule, the “pMLC recruitment to wound edges” value in experiment [1] (10 μg/ml sAgrin 18 h) is “strong recruitment of pMLC to wound edges forming stable actomyosin cables”. For the same molecule, in experiment [1] (10 μg/ml sAgrin 18 h, within 4 h post-wounding), the “actomyosin cables in Agrin deprived cells” value was “restored”. The “actomyosin cable network in MMP12 suppressed cells” value in experiment [1] (MMP12 siRNA, 10 μg/ml sAgrin 18 h) was “did not restore actomyosin cable network”. In addition, in experiment [1] (within 2 h post-wounding), the “pMLC levels in MMP12 depleted keratinocytes” value is “unable to rescue the severely diminished pMLC levels”. Besides, the “pMLC activation in Agrin depleted cells” value in experiment [1] (within 2 h post-wounding, sAgrin pre-treatment) was “restored”. Also, the “stiffness of migrating MMP12 knockdown keratinocytes” value with mouse keratinocytes (4 h post-injury, sAgrin treatment) is recorded as “not restored by sAgrin treatment”. Besides, the “stiffness of migrating keratinocytes” value in the experiment with mouse keratinocytes (Agrin knockdown rescued with 10 μg/ml sAgrin, 4 h post-wound scratch, control ~2.1, knockdown ~0.9 KPa) was roughly 1.5 KPa.
